Results: patent publication US20230183352A1 (published 2023)

Assays:
[1] = target: T1, Claudin 18.2 (CLDN18.2), expressed on CHOS-CLDN 18.2 / HEK293-CLDN 18.2 / HCC827-CLDN 18.2 cells (human, UniProt P56856-2 1-261); test: FACS, CHOS-CLDN18.2 cells, 0 µg/ml (background)
T1 construct: whole, on cells; The species is not repeated for the CHOS-CLDN 18.2 cells; also called claudin-18A2
Method: (§1) The initial concentration of the antibody was 20 μg/ml, it was diluted at 1:4, and incubated at 4° C. for 60 min.

[2] = target: T1, Claudin 18.2 (CLDN18.2), expressed on …; test: FACS, CHOS-CLDN18.2 cells, 20 µg/ml
Method: as §1

[3] = target: T1, Claudin 18.2 (CLDN18.2), expressed on …; test: FACS, CHOS-CLDN18.2 cells, 0 µg/ml (background); remark: listed apart in the source
Method: as §1

[4] = target: T1, Claudin 18.2 (CLDN18.2), expressed on …; test: FACS, MFI on CHOS-CLDN18.2 over MFI on CHOS-CLDN18.1, 10 µg/ml
Method: The initial concentration of the antibody was 20 μg/mkit was diluted at 1:4, and incubated at 4° C. for 60 min.

[5] = target: T1, Claudin 18.2 (CLDN18.2), expressed on …; test: FACS, CHOS-CLDN18.2 cells
Method: as §1

[6] = target: T1, Claudin 18.2 (CLDN18.2), expressed on …; test: cell-based or functional assay
[7] = target: T1, Claudin 18.2 (CLDN18.2), expressed on …; test: FACS, CHOS-CLDN18.2 cells, 0 µg/ml (background); remark: listed apart in the source
Method: as §1

[8] = target: T1, Claudin 18.2 (CLDN18.2), expressed on …; test: FACS, CHOS-CLDN18.2 cells, 20 µg/ml; remark: listed apart in the source
Method: as §1

[9] = target: T1, Claudin 18.2 (CLDN18.2), expressed on …; test: FACS, CHOS-CLDN18.2 cells, 0.078 µg/ml
Method: as §1

[10] = target: T1, Claudin 18.2 (CLDN18.2), expressed on …; test: FACS, CHOS-CLDN18.2 cells, 1.250 µg/ml
Method: as §1

[11] = target: T1, Claudin 18.2 (CLDN18.2), expressed on …; test: FACS, CHOS-CLDN18.2 cells, 1.250 µg/ml; remark: listed apart in the source
Method: as §1

[12] = target: T1, Claudin 18.2 (CLDN18.2), expressed on …; test: FACS, CHOS-CLDN18.2 cells, 20 µg/ml; remark: listed apart in the source
Method: as §1

[13] = target: T1, Claudin 18.2 (CLDN18.2), expressed on …; test: FACS, CHOS-CLDN18.2 cells, 0.078 µg/ml; remark: listed apart in the source
Method: as §1

[14] = target: T1, Claudin 18.2 (CLDN18.2), expressed on …; test: FACS, CHOS-CLDN18.2 cells, 0 µg/ml (background); remark: listed apart in the source
Method: as §1

[15] = target: T1, Claudin 18.2 (CLDN18.2), expressed on …; test: FACS, CHOS-CLDN18.2 cells, 5 µg/ml
Method: as §1

[16] = target: T1, Claudin 18.2 (CLDN18.2), expressed on …; test: FACS, CHOS-CLDN18.2 cells, 0.313 µg/ml
Method: as §1

[17] = target: T1, Claudin 18.2 (CLDN18.2), expressed on …; test: FACS, CHOS-CLDN18.2 cells, 0.020 µg/ml
Method: as §1

B1: QP024025 (antibody, human IgG1, V domains shown)
VH: QVQLQQPGAELVRPGASVKLSCKASGYTFTSYWINWVKQRPGQGLEWIGNIYPSDSYTNYNQKFKDKATLTVDKSSSTAYMQLSSPTSEDSAVYYCTRSWRGNSFDYWGQGTTLTVSS
VL: DIVMTQSPSSLTVTAGEKVTMSCKSSQSLLNSGNQKNYLTWYQQKPGQPPKLLIYWASTRESGVPDRFTGSGSGTDFTLTISSVQAEDLAVYYCQNDYSYPFTFGSGTKLEIK
notes: also called IMAB362; 175D10(IMAB362)
- FACS reading [1]: 732
- FACS reading [2]: 72300
- FACS reading [3]: 732
- CLDN18.2/CLDN18.1 (MFI ratio) [4]: 104
- EC50 [5]: 0.27 µg/mL
- max [5]: 88600
- EC50 of killing, ADCC (PBMC, HEK293-CLDN18.2 cells) [6]: 0.0156 µg/mL
- Killing percentage, ADCC (PBMC, HEK293-CLDN18.2 cells), 0 µg/ml [6]: -1.33%
- Killing percentage, ADCC (PBMC, HEK293-CLDN18.2 cells), 0.0001024 µg/ml [6]: -2.74%
- Killing percentage, ADCC (PBMC, HEK293-CLDN18.2 cells), 0.000512 µg/ml [6]: 1.7%
- Killing percentage, ADCC (PBMC, HEK293-CLDN18.2 cells), 0.00256 µg/ml [6]: 1.49%
- Killing percentage, ADCC (PBMC, HEK293-CLDN18.2 cells), 0.0128 µg/ml [6]: 11%
- Killing percentage, ADCC (PBMC, HEK293-CLDN18.2 cells), 0.064 µg/ml [6]: 22%
- Killing percentage, ADCC (PBMC, HEK293-CLDN18.2 cells), 0.32 µg/ml [6]: 28.2%
- Killing percentage, ADCC (PBMC, HEK293-CLDN18.2 cells), 1.6 µg/ml [6]: 30%
- Killing percentage, ADCC (PBMC, HEK293-CLDN18.2 cells), 8 µg/ml [6]: 26.2%
- Killing percentage, ADCC (PBMC, HEK293-CLDN18.2 cells), 40 µg/ml [6]: 21.6%
- FACS reading [7]: 732
- FACS reading [8]: 72300
- FACS reading [9]: 18200
- FACS reading [10]: 63700
- FACS reading [11]: 63700
- FACS reading [12]: 72300
- FACS reading [13]: 18200
- FACS reading [14]: 732
- FACS reading [15]: 105000
- FACS reading [16]: 51000
- FACS reading [17]: 6950
